These results are taken from article PMC11886768 (2025).

To fix the notation:
B1: GFP-CRY1 (N. benthamiana) [Arabidopsis] / cLUC-COP1 [Arabidopsis] (parent)
chain 1: MSGSVSGCGSGGCSIVWFRRDLRVEDNPALAAAVRAGPVIALFVWAPEEEGHYHPGRVSRWWLKNSLAQLDSSLRSLGTCLITKRSTDSVASLLDVVKSTGASQIFFNHLYDPLSLVRDHRAKDVLTAQGIAVRSFNADLLYEPWEVTDELGRPFSMFAAFWERCLSMPYDPESPLLPPKKIISGDVSKCVADPLVFEDDSEKGSNALLARAWSPGWSNGDKALTTFINGPLLEYSKNRRKADSATTSFLSPHLHFGEVSVRKVFHLVRIKQVAWANEGNEAGEESVNLFLKSIGLREYSRYISFNHPYSHERPLLGHLKFFPWAVDENYFKAWRQGRTGYPLVDAGMRELWATGWLHDRIRVVVSSFFVKVLQLPWRWGMKYFWDTLLDADLESDALGWQYITGTLPDSREFDRIDNPQFEGYKFDPNGEYVRRWLPELSRLPTDWIHHPWNAPESVLQAAGIELGSNYPLPIVGLDEAKARLHEALSQMWQLEAASRAAIENGSEEGLGDSAEVEEAPIEFPRDITMEETEPTRLNPNRRYEDQMVPSITSSLIRPEEDEESSLNLRNSVGDSRAEVPRNMVNTNQAQQRRAEPASNQVTAMIPEFNIRIVAESTEDSTAESSSSGRRERSGGIVPEWSPGYSEQFPSEENGIGGGSTTSSYLQNHHEILNWRRLSQTG
chain 2: MEEISTDPVVPAVKPDPRTSSVGEGANRHENDDGGSGGSEIGAPDLDKDLLCPICMQIIKDAFLTACGHSFCYMCIITHLRNKSDCPCCSQHLTNNQLYPNFLLDKLLKKTSARHVSKTASPLDQFREALQRGCDVSIKEVDNLLTLLAERKRKMEQEEAERNMQILLDFLHCLRKQKVDELNEVQTDLQYIKEDINAVERHRIDLYRARDRYSVKLRMLGDDPSTRNAWPHEKNQIGFNSNSLSIRGGNFVGNYQNKKVEGKAQGSSHGLPKKDALSGSDSQSLNQSTVSMARKKRIHAQFNDLQECYLQKRRQLADQPNSKQENDKSVVRREGYSNGLADFQSVLTTFTRYSRLRVIAEIRHGDIFHSANIVSSIEFDRDDELFATAGVSRCIKVFDFSSVVNEPADMQCPIVEMSTRSKLSCLSWNKHEKNHIASSDYEGIVTVWDVTTRQSLMEYEEHEKRAWSVDFSRTEPSMLVSGSDDCKVKVWCTRQEASVINIDMKANICCVKYNPGSSNYIAVGSADHHIHYYDLRNISQPLHVFSGHKKAVSYVKFLSNNELASASTDSTLRLWDVKDNLPVRTFRGHTNEKNFVGLTVNSEYLACGSETNEVYVYHKEITRPVTSHRFGSPDMDDAEEEAGSYFISAVCWKSDSPTMLTANSQGTIKVLVLAA

In the first experiment the parent is B1. The experiment in a line: luciferase complementation imaging (LCI) competition assay (cLUC-COP1 + HY5-nLUC). Particulars: with cLUC-COP1 [Arabidopsis]; transfected N. benthamiana leaves, n = 22, CCD camera; value is the mean ('+'), median about 0.95; GFP-NLS-GUS control = 1; higher signal = less displacement …; parent: 0.6; read off a plot.
Consider chain 1 V548A P549A, for which the screen value stood at 1.1.

The variants in another experiment derive from B1. The experiment can be described thus: mammalian three-hybrid (M3H) competition assay (displacement of HY5-VP16 from E-COP1). As to conditions: with E-COP1 [Arabidopsis]; CHO-K1 cells, blue light (10 μmol m−2 s−1), 24 h; higher signal = less displacement of HY5 by the CRY1 variant; GFP control est. 150; parent: 30; read off a plot.
Turning to chain 1 V548A P549A, the screen value (Au (SEAP/sNLuc)) was 150.

Staying with this experiment, now noted: with E-COP1 [Arabidopsis]; CHO-K1 cells, darkness, 24 h; higher signal = less displacement of HY5 by the CRY1 variant; GFP control est. 150; parent: 76; read off a plot.
Regarding chain 1 V548A P549A, the screen value (Au (SEAP/sNLuc)) stood at 130.
